According to patent publication CN114656556A:

Tests used:
[1] = target: SARS-CoV2 S蛋白, 奥密克戎 (Omicron:BA.1), on pseudovirus (SARS-CoV2); test: cell-based or functional assay
[2] = target: SARS-CoV2 S蛋白, 拉姆达 (Lambda:C.37), on pseudovirus (SARS-CoV2); test: cell-based or functional assay

B1: 全人源单克隆抗体YK-CoV2-03 (fully human anti-SARS-CoV2 monoclonal antibody, whole IgG) (antibody, V domains shown)
VH: EVQLQESGGGLVQPGGSLRLSCAASGLTVSRNYMTWVRQAPGKGLEWVSLIYAGGSTYYADSVKGRFTISRDNSKNTLYLQMNSLGAEDTAVYYCARDLVYYGMDVWGQGTTVTVAS
VL: DIQMTQSPFSLSASVGDRVTITCRASQGISSYLAWYQQKPGKAPKLLIYAASTLQSGVPSRFSGSGSGTDFTLTISSLQPEDFATYYCQHLNSDRYTFGQGTKLEI
- pseudovirus neutralisation IC50 (luciferase RLU, 293T-hACE2 cells) [1]: 0.32 µg/mL
- pseudovirus neutralisation IC50 (luciferase RLU, 293T-hACE2 cells) [2]: 0.0209 µg/mL
